# Experimental data: the supplement of paper PMC6755084
# B1: F1*; the commonest letter at each place (parent)
# chain: GAGACCGCAACTGAAAAGTTGTTATCACTTGTCGTAAGACACTTTGGATGGGTTGAAGTTCTGCACGTAGAAGCAAAAGGC
# Variants of: B1
# Assay: fraction ligated after 30 min (ligated reads / total reads); higher = more ligase activity
# Conditions: with F1*sub RNA substrate (template-directed ligation), 42 °C
# In short: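 The ligase ribozyme variants were produced by PCR amplification of oligo-pool templates, T7 transcription and purification on gel. Their ligated and unligated forms were gel-separated, then reverse transcribed with barcoded primers before MiSeq sequencing. Core bases were filtered at a quality of ≥20, and fraction ligated per variant was ligated reads over total reads.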
row,Variant,fraction ligated
1,GAGACCGCAACTGAAAAGTTGTTATCACTTGTCGTACGACTCTTTGGATGGGTTGAAGTTCTGCACGTAGAAGCAAAAGGC [A37C A41T],0.816
2,GAGACCGCAACTGAAAAGTTGTTATCACTTGTCGTACGACCCTTTGGATGGGTTGAAGTTCTGCACGTAGAAGCAAAAGGC [A37C A41C],0.759
3,GAGACCGCAACTGAAAAGTTGTTATCACTTGTCGTACGACGCTTTGGATGGGTTGAAGTTCTGCACGTAGAAGCAAAAGGC [A37C A41G],0.79
4,GAGACCGCAACTGAAAAGTTGTTATCACTTGTCGTACGTCACTTTGGATGGGTTGAAGTTCTGCACGTAGAAGCAAAAGGC [A37C A39T],0.807
5,GAGACCGCAACTGAAAAGTTGTTATCACTTGTCGTACGGCACTTTGGATGGGTTGAAGTTCTGCACGTAGAAGCAAAAGGC [A37C A39G],0.833
6,GAGACCGCAACTGAAAAGTTGTTATCACTTGTCGTACGCCACTTTGGATGGGTTGAAGTTCTGCACGTAGAAGCAAAAGGC [A37C A39C],0.782
7,GAGACCGCAACTGAAAAGTTGTTATCACTTGTCGTACGACAGTTTGGATGGGTTGAAGTTCTGCACGTAGAAGCAAAAGGC [A37C C42G],0.833
8,GAGACCGCAACTGAAAAGTTGTTATCACTTGTCGTACGACAATTTGGATGGGTTGAAGTTCTGCACGTAGAAGCAAAAGGC [A37C C42A],0.849
9,GAGACCGCAACTGAAAAGTTGTTATCACTTGTCGTACGACATTTTGGATGGGTTGAAGTTCTGCACGTAGAAGCAAAAGGC [A37C C42T],0.857
10,GAGACCGCAACTGAAAAGTTGTTATCACTTGTCGTACGATACTTTGGATGGGTTGAAGTTCTGCACGTAGAAGCAAAAGGC [A37C C40T],0.858
11,GAGACCGCAACTGAAAAGTTGTTATCACTTGTCGTACGAGACTTTGGATGGGTTGAAGTTCTGCACGTAGAAGCAAAAGGC [A37C C40G],0.809
12,GAGACCGCAACTGAAAAGTTGTTATCACTTGTCGTACGAAACTTTGGATGGGTTGAAGTTCTGCACGTAGAAGCAAAAGGC [A37C C40A],0.82
13,GAGACCGCAACTGAAAAGTTGTTATCACTTGTCGTACGACACTTGGGATGGGTTGAAGTTCTGCACGTAGAAGCAAAAGGC [A37C T45G],0.415
14,GAGACCGCAACTGAAAAGTTGTTATCACTTGTCGTACGACACTTAGGATGGGTTGAAGTTCTGCACGTAGAAGCAAAAGGC [A37C T45A],0.78
15,GAGACCGCAACTGAAAAGTTGTTATCACTTGTCGTACGACACTTCGGATGGGTTGAAGTTCTGCACGTAGAAGCAAAAGGC [A37C T45C],0.778
16,GAGACCGCAACTGAAAAGTTGTTATCACTTGTCGTACGACACTATGGATGGGTTGAAGTTCTGCACGTAGAAGCAAAAGGC [A37C T44A],0.84
17,GAGACCGCAACTGAAAAGTTGTTATCACTTGTCGTACGACACTGTGGATGGGTTGAAGTTCTGCACGTAGAAGCAAAAGGC [A37C T44G],0.859

row,Variant,fraction ligated
1,GAGACCGCAACTGAAAAGTTGTTATCACTTGTCGTACGACACTCTGGATGGGTTGAAGTTCTGCACGTAGAAGCAAAAGGC [A37C T44C],0.843
2,GAGACCGCAACTGAAAAGTTGTTATCACTTGTCGTTAGACACTTTGGACGGGTTGAAGTTCTGCACGTAGAAGCAAAAGGC [A36T T49C],0.742
3,GAGACCGCAACTGAAAAGTTGTTATCACTTGTCGTTAGACACTTTGGAGGGGTTGAAGTTCTGCACGTAGAAGCAAAAGGC [A36T T49G],0.797
4,GAGACCGCAACTGAAAAGTTGTTATCACTTGTCGTTAGACACTTTGGAAGGGTTGAAGTTCTGCACGTAGAAGCAAAAGGC [A36T T49A],0.797
5,GAGACCGCAACTGAAAAGTTGTTATCACTTGTCGTACGACACTTTGGATGGGTTGTAGTTCTGCACGTAGAAGCAAAAGGC [A37C A56T],0.804
6,GAGACCGCAACTGAAAAGTTGTTATCACTTGTCGTACGACACTTTGGATGGGTTGCAGTTCTGCACGTAGAAGCAAAAGGC [A37C A56C],0.818
7,GAGACCGCAACTGAAAAGTTGTTATCACTTGTCGTACGACACTTTGGATGGGTTGGAGTTCTGCACGTAGAAGCAAAAGGC [A37C A56G],0.784
8,GAGACCGCAACTGAAAAGTTGTTATCACTTGTCGTTAGACACTTGGGATGGGTTGAAGTTCTGCACGTAGAAGCAAAAGGC [A36T T45G],0.385
9,GAGACCGCAACTGAAAAGTTGTTATCACTTGTCGTTAGACACTTCGGATGGGTTGAAGTTCTGCACGTAGAAGCAAAAGGC [A36T T45C],0.783
10,GAGACCGCAACTGAAAAGTTGTTATCACTTGTCGTTAGACACTTAGGATGGGTTGAAGTTCTGCACGTAGAAGCAAAAGGC [A36T T45A],0.778
11,GAGACCGCAACTGAAAAGTTGTTATCACTTGTCGTACGACACTTTGAATGGGTTGAAGTTCTGCACGTAGAAGCAAAAGGC [A37C G47A],0.796
12,GAGACCGCAACTGAAAAGTTGTTATCACTTGTCGTACGACACTTTGTATGGGTTGAAGTTCTGCACGTAGAAGCAAAAGGC [A37C G47T],0.406
13,GAGACCGCAACTGAAAAGTTGTTATCACTTGTCGTACGACACTTTGCATGGGTTGAAGTTCTGCACGTAGAAGCAAAAGGC [A37C G47C],0.444
14,GAGACCGCAACTGAAAAGTTGTTATCACTTGTCGTAGGTCACTTTGGATGGGTTGAAGTTCTGCACGTAGAAGCAAAAGGC [A37G A39T],0.796
15,GAGACCGCAACTGAAAAGTTGTTATCACTTGTCGTAGGCCACTTTGGATGGGTTGAAGTTCTGCACGTAGAAGCAAAAGGC [A37G A39C],0.776
16,GAGACCGCAACTGAAAAGTTGTTATCACTTGTCGTAGGGCACTTTGGATGGGTTGAAGTTCTGCACGTAGAAGCAAAAGGC [A37G A39G],0.853
17,GAGACCGCAACTGAAAAGTTGTTATCACTTGTCGTACCACACTTTGGATGGGTTGAAGTTCTGCACGTAGAAGCAAAAGGC [A37C G38C],0.818
